Test results published in publication PMC10914790.

Assays:
Experiment in all cases: MST; Clr4 constructs fluorescently labelled (BLUE-NHS), H3KC9me3 nucleosomes added at 8 nM to 2.5 μM; 10 mM Tris–HCl pH 7.5, 150 mM NaCl, 0.5 mM DTT, 0.05% Tween-20; 40% MST power, 80% LED; five runs
[1] = target: Clr4 CD-deleted construct (S. pombe)
[2] = target: Clr4 chromodomain construct (S. pombe) (UniProt O60016)
[3] = target: full-length Clr4 (Cryptic loci regulator protein 4), H3K9 methyltransferase (S. pombe) (UniProt O60016)

Substance: H3KC9me3 nucleosome (H3K9 trimethyl-lysine analog nucleosome) (complex)
- Kd [1]: 422 nM
- Kd [2]: 310 nM
- Kd [3]: 541 nM
